Experimental data taken from PMC7806223, “Structures of Rhodopseudomonas palustris RC-LH1 complexes with open or closed quinone channels” (Science Advances, 2021).

T1: protein-W (PufW), C-terminally 10× His-tagged (Rhodopseudomonas palustris CGA009, UniProt Q6N1K3 1-102)
T1 construct: protein-W (PufW, RPA4402) of Rhodopseudomonas palustris, a 10.5-kDa protein with three transmembrane helices; C-terminal amino acids are unresolved in the map; also called PufW-His; RPA4402; source: Rps. palustris CGA009 PufW-His strain, expressed from the native pufW locus; purified within RC-LH1_(14)-W (Ni-NTA IMAC, DEAE, SEC); not shown: 10× His, C-terminal, kept
T1 sequence: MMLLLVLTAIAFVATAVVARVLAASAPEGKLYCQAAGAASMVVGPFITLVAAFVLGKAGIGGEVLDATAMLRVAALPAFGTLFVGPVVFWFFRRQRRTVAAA


Columns and labels:
Assay in all cases: cryo-EM structure; RC-LH1_(14)-W complex purified from the PufW-His strain; in IMAC buffer (20 mM tris-HCl pH 8.0, 200 mM NaCl, 0.03% β-DDM); 2.65 Å
Details in all cases: both partners purified
[1] = target: T1, protein-W (PufW), C-terminally 10× …
[2] = target: T2, RC-L (PufL) (Rhodopseudomonas palustris CGA009, UniProt O83005 1-277)
T2 construct: reaction center L subunit (PufL) of Rhodopseudomonas palustris; also called subunit L; L polypeptide; source: endogenous, Rps. palustris CGA009 (ΔpufW and PufW-His strains); purified within RC-LH1 complexes from β-DDM-solubilized membranes

[3] = target: T3, RC-M (PufM) (Rhodopseudomonas palustris CGA009, UniProt A0A4Z7 1-307)
T3 construct: reaction center M subunit (PufM) of Rhodopseudomonas palustris; also called subunit M; M polypeptide; source: endogenous, Rps. palustris CGA009 (ΔpufW and PufW-His strains); purified within RC-LH1 complexes from β-DDM-solubilized membranes

Row | binding result [1] | binding result [2] | binding result [3] | Binder
1 | binds | – | – | LH1-β (PufB) (natural protein, LH1-β (PufB) of Rhodopseudomonas palustris; mass spectrometry of wild-type RC-LH1: residues Ser2 to Ala53; resolved Gly4 to Tyr52 in RC-LH1_(16) and Ser5 to Tyr52 in RC-LH1_(14)-W, no density for 13 C-terminal residues; 14 copies in RC-LH1_(14)-W, 16 copies in RC-LH1_(16); The termini were found by mass spectrometry on mixed complexes of the wild-type strain; also called β-polypeptide; source: …) not shown
2 | – | binds | binds | RC-H (PuhA) (natural protein, Rhodopseudomonas palustris CGA009, UniProt A0A4Z9 1-255, looked up, reaction center H subunit (PuhA) of Rhodopseudomonas palustris; C-terminal amino acids are unresolved in the map; also called subunit H; source: endogenous, Rps. palustris CGA009 (ΔpufW and PufW-His strains); purified within RC-LH1 complexes from β-DDM-solubilized membranes) MQPGAYLDLAQVTLYVFWIFFAGLLFYLRREDKREGYPLVADAGSGTRLAKIGVPAPPDPKTYLLRGGATKTVPSTSNDRPNVALTPAAPWPGAPFVPTGNPFADGVGPGSYAQRADVPELGLDNLPIIVPLRAAKGMFLDPRDPNPVGMPVVGCDGVVGGTVTEVWVDRAEVLARYLEVEVAKSRKRVLLPVPFALINDPFGKVSVDAIRGDQFAGVPTTSKGDQVSKLEEDKICAYYGAGTLYATPLRSESLV
